Data published in US20210179666A1, “CYCLIC PEPTIDES AND METHODS OF USE THEREOF” (Regents of the University of Minnesota, priority 2019, published 2021).

Biological target: human melanocortin 4 receptor (human) (UniProt P32245)
Assay: cell-based or functional assay

Chain of human melanocortin 4 receptor (human) (P32245 whole entry): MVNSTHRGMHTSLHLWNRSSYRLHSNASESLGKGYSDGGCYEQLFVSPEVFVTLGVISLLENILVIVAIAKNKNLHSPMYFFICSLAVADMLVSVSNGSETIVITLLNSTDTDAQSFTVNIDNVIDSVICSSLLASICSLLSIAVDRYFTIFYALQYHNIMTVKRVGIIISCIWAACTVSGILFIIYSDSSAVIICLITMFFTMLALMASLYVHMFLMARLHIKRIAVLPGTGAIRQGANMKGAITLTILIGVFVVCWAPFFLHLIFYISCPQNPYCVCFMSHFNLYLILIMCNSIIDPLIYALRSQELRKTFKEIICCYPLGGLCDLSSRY

pA2 (Schild analysis, agonist NDP-MSH, cAMP): 8.7
Substance: AgRP (from UniProt O00253 87-132) (ligand)
